Where no end group is shown, it is not given here. The star is where a group is joined. Thia = thiazolidide, C1CN(*)CS1

The term Ki denotes a dissociation constant, usually derived from enzyme kinetics or from competition with a known ligand.

The target in test [1] is recombinant human DP IV, wild type (human) (UniProt P27487). In words: photometric assay, competition with the standard substrate GP-4NA.
The target is the same in test [2]. In words: MALDI-TOF MS, inhibition of DP IV-catalyzed truncation of the substrate PACAP-27 after preincubation with TFTSDY.
The target is the same in test [3]. In words: MALDI-TOF MS, inhibition of DP IV-catalyzed truncation of the substrate GIP after preincubation with TFTSDY.
Test [4] shares this target. Nature of the test: MALDI-TOF MS, inhibition of DP IV-catalyzed truncation of the substrate glucagon after preincubation with TFTSDY.
For test [5] the target is unchanged. Nature of the test: MALDI-TOF MS, inhibition of DP IV-catalyzed truncation of the substrate PACAP-38 after preincubation with TFTSDY.

recombinant human DP IV, wild type (human), sequence (P27487 other isoform, or with tags, fused parts or gaps): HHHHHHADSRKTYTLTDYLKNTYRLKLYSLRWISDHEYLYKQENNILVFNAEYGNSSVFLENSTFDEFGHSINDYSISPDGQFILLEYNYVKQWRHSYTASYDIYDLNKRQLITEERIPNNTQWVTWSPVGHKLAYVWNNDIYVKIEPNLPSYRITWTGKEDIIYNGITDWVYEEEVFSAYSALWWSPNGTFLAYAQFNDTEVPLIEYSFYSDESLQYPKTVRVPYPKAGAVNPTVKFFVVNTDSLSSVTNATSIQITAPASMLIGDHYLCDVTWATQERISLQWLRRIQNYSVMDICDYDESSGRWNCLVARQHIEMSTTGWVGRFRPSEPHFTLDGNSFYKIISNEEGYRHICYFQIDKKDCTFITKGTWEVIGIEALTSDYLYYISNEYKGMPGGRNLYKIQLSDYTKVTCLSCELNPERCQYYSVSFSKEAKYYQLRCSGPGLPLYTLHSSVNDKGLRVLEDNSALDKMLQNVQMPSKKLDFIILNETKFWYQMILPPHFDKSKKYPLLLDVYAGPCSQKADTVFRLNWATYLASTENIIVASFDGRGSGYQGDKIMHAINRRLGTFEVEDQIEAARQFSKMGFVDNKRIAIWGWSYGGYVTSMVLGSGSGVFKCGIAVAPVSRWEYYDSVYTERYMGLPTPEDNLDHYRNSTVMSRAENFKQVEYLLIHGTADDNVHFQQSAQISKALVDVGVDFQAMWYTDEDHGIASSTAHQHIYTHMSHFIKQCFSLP

For RRLSYSRRRFE-Thia (also: linkage of decapeptide to Glu not explained) [Transp 01 (…-E-Thia)], the Ki in test [1] stood at 50.8 nM.

Regarding TFTSDY [hexapeptide TFTSDY], the Ki in test [2] was found to be 26.7 µM; in test [3] it was 14 µM; in test [4] it was 3.7 µM; in test [5], 2800 nM.

On to HSDGIFTDSYSRYRKQMAVKKYLAAVLGKRYKQRVKNK (peptide, UniProt P18509 132-169, looked up, ends and bridges not checked) [PACAP-38], for which, in test [1], the inhibition constant (Ki) came out at 38300 nM.

With YAESTF-NH2 [YAESTF amide], in test [1], the Ki is 35.1 nM.

The values above are taken from patent publication US20060234940A1.
